Results from US20160237157A1.

Assays:
[1] = target: human FGFR4-FGFR1 chimeric construct (hFGFR4/R1) on BaF3 cells (human) (UniProt P11362); test: cell-based or functional assay
[2] = target: T1, human FGFR4 (soluble, Part B: SPR and FGFR4 ELISA) (human) (UniProt P22455); test: SPR (BIAcore-2000), antibody immobilized, human FGFR4 injected
T1 sequence: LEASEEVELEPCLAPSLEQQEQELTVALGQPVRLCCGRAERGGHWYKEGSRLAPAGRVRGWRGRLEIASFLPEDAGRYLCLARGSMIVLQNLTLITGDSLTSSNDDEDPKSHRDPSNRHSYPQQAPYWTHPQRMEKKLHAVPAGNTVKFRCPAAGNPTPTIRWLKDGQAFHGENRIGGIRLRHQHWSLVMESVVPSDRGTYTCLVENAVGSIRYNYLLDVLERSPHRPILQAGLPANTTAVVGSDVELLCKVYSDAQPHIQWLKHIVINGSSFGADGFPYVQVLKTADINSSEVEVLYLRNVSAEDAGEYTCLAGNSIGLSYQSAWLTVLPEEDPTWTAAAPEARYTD

[3] = target: T2, FGFR4 (solid phase receptor-binding assay) (Homo sapiens (Human)) (UniProt P22455); test: solid phase receptor-binding assay; LD1 titrated, inhibition of FGF1 binding to FGFR4
T2 sequence: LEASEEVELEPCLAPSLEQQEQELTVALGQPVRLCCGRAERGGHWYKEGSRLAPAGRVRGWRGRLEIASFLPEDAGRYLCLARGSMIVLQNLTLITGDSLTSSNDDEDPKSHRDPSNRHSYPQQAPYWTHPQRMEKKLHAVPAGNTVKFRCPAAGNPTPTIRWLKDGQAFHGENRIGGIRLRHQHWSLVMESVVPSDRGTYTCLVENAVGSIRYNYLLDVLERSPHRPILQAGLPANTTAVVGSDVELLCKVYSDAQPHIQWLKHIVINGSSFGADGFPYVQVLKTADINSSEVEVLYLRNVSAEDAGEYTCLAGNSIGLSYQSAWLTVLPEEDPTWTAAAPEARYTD

[4] = target: T2, FGFR4 (solid phase receptor-binding assay) (Homo sapiens (Human)); test: solid phase receptor-binding assay; LD1 titrated, inhibition of FGF19 binding to FGFR4

B1: chimeric LD1 (chLD1) (antibody, from a related filing, human IgG1, V domains shown)
VH: EVQLQQPGAVLVRPGTSVKLSCKASGYTFTNHWMNWVKQRPGQGLEWIGMIHPSDSETTLDQKFKDKATLTVDKSSSTAYMQLNRPTSEDSAVYYCTRGDISLFDYWGQGTTVTVSS
VL: DIQMTQTTSSLSASLGDRVTITCRTSQDISNFLNWYQQKPDGTFKILISYTSRLHSGVPSRFSGSGSGTDYSLTISTLEQEDFATYFCQQGNALPYTFGGGTKLEIE
inhibition of FGF1-stimulated proliferation of BaF3/FGFR4/R1 cells (5 nM FGF1), IC50 [1]: 17.4 nM
Kd [2]: 0.45 nM
koff [2]: 0.000173 s⁻¹
IC50 [3]: 0.093 nM
IC50 [4]: 0.102 nM
